Several values for one entry are separate records, joined by “and”; a condition that tells them apart may be missing. Identical values can stand only once. Entries after “also recorded” stand apart in the source; their conditions may differ.
Legend:
[1] = molecular target: T1, hAPLNR (Homo sapiens, UniProt P35414); experiment: cyclic AMP (CRE-luciferase) assay, activation of hAPLNR in HEK293/CRE-luc/hAPLNR cells; assay type: cell-based; conditions: % of maximum Apelin activation, without Apelin
T1 construct: expressed in transfected cells
T1 sequence (P35414 1-380): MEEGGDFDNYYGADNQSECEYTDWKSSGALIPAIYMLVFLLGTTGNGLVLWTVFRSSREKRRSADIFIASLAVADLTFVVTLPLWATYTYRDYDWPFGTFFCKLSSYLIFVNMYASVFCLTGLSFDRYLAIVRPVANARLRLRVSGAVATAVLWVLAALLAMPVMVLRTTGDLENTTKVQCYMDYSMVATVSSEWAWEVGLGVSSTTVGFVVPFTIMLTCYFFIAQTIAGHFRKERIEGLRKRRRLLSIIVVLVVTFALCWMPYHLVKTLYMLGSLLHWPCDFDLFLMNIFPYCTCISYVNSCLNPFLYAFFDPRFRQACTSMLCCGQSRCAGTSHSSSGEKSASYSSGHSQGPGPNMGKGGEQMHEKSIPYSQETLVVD
Experimental: The ability of anti-APLNR antibodies to activate hAPLNR-mediated cell signaling was measured using a cyclic AMP assay. The hAPLNR is a 7-transmembrane G-protein coupled receptor (GPCR).
The resulting cell line, HEK293/CRE-luc/hAPLNR, was maintained in DMEM containing 10% FBS, NEAA, penicillin/streptomycin, and 100 μg/mL Hygromycin B.
Testing of antibodies included a no antibody control.
The results of all assays were analyzed using nonlinear regression (4-parameter logistics) within Prism 5 software (GraphPad).

[2] = system: HEK293 parental cells; experiment: FACS binding to HEK293 parental cells; conditions: 10 μg/mL antibody
Experimental: Binding ratios for human APLNR binding to purified anti-APLNR monoclonal antibodies were determined by a fluorescence-activated cell sorting (FACS) binding assay. […] The resulting stable cell lines, HEK293/CRE-luc/hAPLNR and HEK293/CRE-luc/MfAPLNR, were maintained in DMEM containing 10% FBS, NEAA, and penicillin/streptomycin with either 100 μg/mL Hygromycin B for hAPLNR cells or 500 μg/mL G418 for MfAPLNR cells.
For the FACS analysis, HEK293 parental, HEK293/CRE-luc/hAPLNR, and, HEK293/CRE-luc/mfAPLNR cells were dissociated using Enzyme Free Dissociation reagent (#S-004, Millipore, Billerica, Mass., USA) and 10^6 cells/well were plated onto 96-well v-bottom plates in PBS containing 1% FBS. […] Cells were then filtered and analyzed on Accuri Flow Cytometer (BD Biosciences, San Jose, Calif., USA). Unstained and secondary antibody alone controls were also tested for binding to all cell lines. […] Geometric mean (Geom. mean) of fluorescence for each antibody was then normalized to geometric mean of unstained cells to obtain relative binding of antibody (binding ratios) per each cell type: HEK293 (parental), HEK293/CRE-luc/hAPLNR and HEK293/CRE-luc/MfAPLNR.

[3] = molecular target: T2, human APLNR (humanized APLNR mice) (Homo sapiens, UniProt P35414); experiment: retinal vascular development (RVD) model in humanized APLNR mouse pups; assay type: in vivo
T2 construct: homozygous for expression of human APLNR in place of mouse APLNR (humanized APLNR mice); from tissue; host or cells: living humanized APLNR mouse pups (75% C57BL6 / 25% Sv129); read-out in the retina
T2 sequence (P35414 1-380): T1 sequence (P35414 1-380)
Experimental: To assess the in vivo characteristics of select anti-APLNR antibodies of the invention, their ability to block APLNR-mediated angiogenesis in the eye vasculature was measured.
A retinal vascular development (RVD) model was used to evaluate the effects of an antagonistic anti-APLNR antibody on blood vessel outgrowth in the normal developing retina of mouse pups that were of a mixed background strain (75% C57BL6 and 25% Sv129) and homozygous for expression of human APLNR in place of mouse APLNR (humanized APLNR mice). Pups were subcutaneously injected on postnatal day 2 (P2) with either 50 mg/kg of an anti-APLNR antagonist antibody, H2aM9232N, or an irrelevant human Fc (hFc) control. Reagents were masked and labeled as Solution A and Solution B to prevent experimenter bias. At postnatal day 5, tissue samples were collected and then fixed in PBS containing 4% paraformaldehyde. Fixed tissue samples were washed with PBS three times for 15 minutes, and subsequently stained with GS Lectin I (Vector Laboratories, #FL-1101) diluted 1:200 in 1×PBS containing 1% BSA in 0.25% Triton-X 100 overnight at 25° C. to visualize retinal vasculature. The following day, stained samples were rinsed with PBS three times for 15 minutes each, flat-mounted onto slides, and coverslips were subsequently mounted using Prolong Gold (Invitrogen, #P36930). Images were taken at 20 times magnification using an epi-fluorescent microscope (Nikon Eclipse 80). The vascularized areas in the retina were measured from acquired images from this assay using Adobe Photoshop CS6 extended. Statistical differences between the results obtained from the IgG control antibody and H2aM9232N treated samples were assessed using a two tailed, unpaired Student T-test (**, p<0.001). Only after retinal vasculature area measurements and statistical analysis were completed, the sample identities were unmasked.

% Activation at 100 nM mAb (at 10 uM Forskolin) ([1]; Table 6A): No Activation
Retinal blood vessel outgrowth (mm^2), MEAN ([3]; 50 mg/kg s.c. on postnatal day 2, read at postnatal day 5): 2.84 mm^2
mean reduction in retinal blood vessel outgrowth compared to control (hFc) ([3]; single s.c. injection 50 mg/kg, postnatal day 5): approximately 30%
B1: H2aM9232N: antagonistic anti-APLNR antibody, HCVR/LCVR SEQ ID NOs 98/106, mouse IgG2a Fc (antibody, V domains shown)
VH: QVKLVESGGGVVQPGRSLRLSCAASGFTFSNYVIHWVRQAPGKGLEWVAVIWYDGSNKYYADSVKGRFTISRDNSKNTLYLQMNSLRAEDTAVYYCARDRVVRGVDYYYYYGLDVWGQGTSVTVSS
VL: EIVMTQSPATLSVSPGERATLSCRASQSVRSNLAWYQQKPGQAPRLLIYGASSRATGIPARFSGTGSGTEFTLTISSLQSDDFAVYYCQQYNKWPRTFGQGTKVEIK
modifications: mouse IgG2a Fc
% Activation at 500 nM mAb (at […] Forskolin) ([1]; Table 6B): did not demonstrate any measurable activation; also recorded: No Activation
Binding Ratio of Geom. Mean to Unstained Cells, HEK293 Parental [2]: 6
Retinal blood vessel outgrowth (mm^2), individual eye ([3]; 50 mg/kg s.c. on postnatal day 2, read at postnatal day 5, single eyes (OD/OS)): 2.49 mm^2 and 3.04 mm^2 and 3.57 mm^2 and 3.32 mm^2 and 2.23 mm^2 and 2.36 mm^2

Reference: patent US20150252107A1, “APLNR Modulators and Uses Thereof” (Regeneron Pharmaceuticals, Inc., priority 2013, published 2015)
